Experimental data as given in US20210388087A1 (Chugai, published 2021).
Residue numbers refer to the chain shown, from its start. Numbers in names are those of the source.

B1: CE115HA000 H35A (antibody, human IgG1, kappa, L234A L235A, N297A, name in Kabat numbering)
heavy: QVQLVESGGGVVQPGRSLRLSCAASGFTFSNAWMAWVRQAPGKGLEWVAQIKAKSNNYATYYAESVKGRFTISRDDSKNSLYLQMNSLKTEDTAVYYCRYVHYGAYYGVDAWGQGTTVTVSSASTKGPSVFPLAPSSKSTSGGTAALGCLVKDYFPEPVTVSWNSGALTSGVHTFPAVLQSSGLYSLSSVVTVPSSSLGTQTYICNVNHKPSNTKVDKKVEPKSCDKTHTCPPCPAPEAAGGPSVFLFPPKPKDTLMISRTPEVTCVVVDVSHEDPEVKFNWYVDGVEVHNAKTKPREEQYASTYRVVSVLTVLHQDWLNGKEYKCKVSNKALPAPIEKTISKAKGQPREPQVYTLPPSRCELTKNQVSLSCAVKGFYPSDIAVEWESNGQPENNYKTTPPVLDSDGSFFLVSKLTVDKSRWQQGNVFSCSVMHEALHNHYTQKSLSLSPDYKDDDDK
chain: EPKSSDKTHTCPPCPAPELLGGPSVFLFPPKPKDTLMISRTPEVTCVVVDVSHEDPEVKFNWYVDGVEVHNAKTKPREEQYNSTYRVVSVLTVLHQDWLNGKEYKCKVSNKALPAPIEKTISKAKGQPREPQVCTLPPSRDELTKNQVSLWCLVKGFYPSDIAVEWESNGQPENNYKTTPPVLDSDGSFFLYSKLTVDKSRWQQGNVFSCSVMHEALHNRYTQKSLSLSP
light: DIVMTQSPLSLPVTPGEPASISCRSSQSLVHSNRNTYLHWYQQKPGQAPRLLIYKVSNRFSGVPDRFSGSGSGTDFTLKISRVEAEDVGVYYCGQGTQVPYTFGQGTKLEIKRTVAAPSVFIFPPSDEQLKSGTASVVCLLNNFYPREAKVQWKVDNALQSGNSQESVTEQDSKDSTYSLSSTLTLSKADYEKHKVYACEVTHQGLSSPVTKSFNRGEC
notes: one-arm antibody
B2: CE115HA000 A52aP (antibody, human IgG1, kappa, L234A L235A, N297A, name in Kabat numbering)
heavy: B1 heavy with A35H, A53P
chain: B1 chain
light: B1 light
notes: one-arm antibody
B3: CE115HA000 A56Y (antibody, human IgG1, kappa, L234A L235A, N297A, name in Kabat numbering)
heavy: B1 heavy with A35H, A59Y
chain: B1 chain
light: B1 light
notes: one-arm antibody
B4: CE115HA000 A56G (antibody, human IgG1, kappa, L234A L235A, N297A, name in Kabat numbering)
heavy: B1 heavy with A35H, A59G
chain: B1 chain
light: B1 light
notes: one-arm antibody
B5: CE115HA000 A52aD (antibody, human IgG1, kappa, L234A L235A, N297A, name in Kabat numbering)
heavy: B1 heavy with A35H, A53D
chain: B1 chain
light: B1 light
notes: one-arm antibody
B6: CE115HA000 A99K (antibody, human IgG1, kappa, L234A L235A, N297A, name in Kabat numbering)
heavy: B1 heavy with A35H, A105K
chain: B1 chain
light: B1 light
notes: one-arm antibody
B7: CE115HA000 A60E (antibody, human IgG1, kappa, L234A L235A, N297A, name in Kabat numbering)
heavy: B1 heavy with A35H, A63E
chain: B1 chain
light: B1 light
notes: one-arm antibody
B8: CE115HA000 A52aY (antibody, human IgG1, kappa, L234A L235A, N297A, name in Kabat numbering)
heavy: B1 heavy with A35H, A53Y
chain: B1 chain
light: B1 light
notes: one-arm antibody
B9: CE115HA000 A56K (antibody, human IgG1, kappa, L234A L235A, N297A, name in Kabat numbering)
heavy: B1 heavy with A35H, A59K
chain: B1 chain
light: B1 light
notes: one-arm antibody
B10: CE115HA000 A32Y (antibody, human IgG1, kappa, L234A L235A, N297A, name in Kabat numbering)
heavy: B1 heavy with A32Y, A35H
chain: B1 chain
light: B1 light
notes: one-arm antibody
B11: CE115HA000 A56D (antibody, human IgG1, kappa, L234A L235A, N297A, name in Kabat numbering)
heavy: B1 heavy with A35H, A59D
chain: B1 chain
light: B1 light
notes: one-arm antibody
B12: CE115HA000 A52aV (antibody, human IgG1, kappa, L234A L235A, N297A, name in Kabat numbering)
heavy: B1 heavy with A35H, A53V
chain: B1 chain
light: B1 light
notes: one-arm antibody
B13: CE115HA000 A99D (antibody, human IgG1, kappa, L234A L235A, N297A, name in Kabat numbering)
heavy: B1 heavy with A35H, A105D
chain: B1 chain
light: B1 light
notes: one-arm antibody
B14: CE115HA000 A99F (antibody, human IgG1, kappa, L234A L235A, N297A, name in Kabat numbering)
heavy: B1 heavy with A35H, A105F
chain: B1 chain
light: B1 light
notes: one-arm antibody
B15: CE115HA000 A56N (antibody, human IgG1, kappa, L234A L235A, N297A, name in Kabat numbering)
heavy: B1 heavy with A35H, A59N
chain: B1 chain
light: B1 light
notes: one-arm antibody
B16: CE115HA000 A52aE (antibody, human IgG1, kappa, L234A L235A, N297A, name in Kabat numbering)
heavy: B1 heavy with A35H, A53E
chain: B1 chain
light: B1 light
notes: one-arm antibody
B17: CE115HA000 A56L (antibody, human IgG1, kappa, L234A L235A, N297A, name in Kabat numbering)
heavy: B1 heavy with A35H, A59L
chain: B1 chain
light: B1 light
notes: one-arm antibody
B18: CE115HA000 A52aG (antibody, human IgG1, kappa, L234A L235A, N297A, name in Kabat numbering)
heavy: B1 heavy with A35H, A53G
chain: B1 chain
light: B1 light
notes: one-arm antibody
B19: CE115HA000 A56Q (antibody, human IgG1, kappa, L234A L235A, N297A, name in Kabat numbering)
heavy: B1 heavy with A35H, A59Q
chain: B1 chain
light: B1 light
notes: one-arm antibody
B20: CE115HA000 A52aS (antibody, human IgG1, kappa, L234A L235A, N297A, name in Kabat numbering)
heavy: B1 heavy with A35H, A53S
chain: B1 chain
light: B1 light
notes: one-arm antibody
B21: CE115HA000 A60D (antibody, human IgG1, kappa, L234A L235A, N297A, name in Kabat numbering)
heavy: B1 heavy with A35H, A63D
chain: B1 chain
light: B1 light
notes: one-arm antibody
B22: CE115HA000 Y100S one-arm antibody (antibody, human IgG1, kappa, L234A L235A, N297A, name in Kabat numbering)
heavy: B1 heavy with A35H, Y106S
chain: B1 chain
light: B1 light
B23: CE115HA000 Y100aG one-arm antibody (antibody, human IgG1, kappa, L234A L235A, N297A, name in Kabat numbering)
heavy: B1 heavy with A35H, Y107G
chain: B1 chain
light: B1 light
B24: CE115HA000 Y100aD one-arm antibody (antibody, human IgG1, kappa, L234A L235A, N297A, name in Kabat numbering)
heavy: B1 heavy with A35H, Y107D
chain: B1 chain
light: B1 light
B25: CE115HA000 Y100V one-arm antibody (antibody, human IgG1, kappa, L234A L235A, N297A, name in Kabat numbering)
heavy: B1 heavy with A35H, Y106V
chain: B1 chain
light: B1 light
B26: CE115HA000 Y100aS one-arm antibody (antibody, human IgG1, kappa, L234A L235A, N297A, name in Kabat numbering)
heavy: B1 heavy with A35H, Y107S
chain: B1 chain
light: B1 light
B27: CE115HA000 Y100aA one-arm antibody (antibody, human IgG1, kappa, L234A L235A, N297A, name in Kabat numbering)
heavy: B1 heavy with A35H, Y107A
chain: B1 chain
light: B1 light
B28: CE115HA000 Y100aL one-arm antibody (antibody, human IgG1, kappa, L234A L235A, N297A, name in Kabat numbering)
heavy: B1 heavy with A35H, Y107L
chain: B1 chain
light: B1 light
B29: CE115HA000 Y100aK one-arm antibody (antibody, human IgG1, kappa, L234A L235A, N297A, name in Kabat numbering)
heavy: B1 heavy with A35H, Y107K
chain: B1 chain
light: B1 light
B30: CE115HA000 Y100aF one-arm antibody (antibody, human IgG1, kappa, L234A L235A, N297A, name in Kabat numbering)
heavy: B1 heavy with A35H, Y107F
chain: B1 chain
light: B1 light
B31: CE115HA000 Y100aQ one-arm antibody (antibody, human IgG1, kappa, L234A L235A, N297A, name in Kabat numbering)
heavy: B1 heavy with A35H, Y107Q
chain: B1 chain
light: B1 light
B32: CE115HA000 Y100W one-arm antibody (antibody, human IgG1, kappa, L234A L235A, N297A, name in Kabat numbering)
heavy: B1 heavy with A35H, Y106W
chain: B1 chain
light: B1 light

molecular target: T1, CD3 epsilon homodimer protein (UniProt P07766 23-126); experiment: SPR, CD3 epsilon homodimer on chip, one-arm antibody as analyte;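 further: surface plasmon resonance at 25 °C with CD3 epsilon homodimer amine-coupled to a CM4 sensor chip, antibody injected as analyte, HBS-EP+ as running buffer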
T1 construct: also called CD3 (CD3 epsilon)
T1 sequence (P07766 23-126): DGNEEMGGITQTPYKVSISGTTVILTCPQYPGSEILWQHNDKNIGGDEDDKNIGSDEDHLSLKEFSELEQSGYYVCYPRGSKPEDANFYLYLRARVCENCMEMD

Row | KD ratio (KD of CE115HA000/KD of altered form) | Binder
1 | 25 | B1
2 | 5 | B2
3 | 0.63 | B3
4 | 0.59 | B4
5 | 1.35 | B5
6 | 1.4 | B6
7 | 0.88 | B7
8 | 7.71 | B8
9 | 1.32 | B9
10 | 2.11 | B10
11 | 0.71 | B11
12 | 0.95 | B12
13 | 1.03 | B13
14 | 1.15 | B14
15 | 0.84 | B15
16 | 0.89 | B16
17 | 0.77 | B17
18 | 0.61 | B18
19 | 0.74 | B19
20 | 0.82 | B20
21 | 0.94 | B21

molecular target: T2, CD3 epsilon homodimer protein (UniProt P07766 23-126); experiment: SPR (Biacore T200), CD3 epsilon homodimer on CM4 chip, one-arm antibody as analyte, 25 C;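 further: homodimer attached to the sensor surface via amine coupling, HBS-EP+ used as running buffer during binding runs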
T2 construct: immobilized on Sensor chip CM4 by amine coupling; also called CD3 (CD3 epsilon)
T2 sequence (P07766 23-126): as above

Row | ratio of amounts bound (altered form / CE115HA000) | Binder
22 | 0.81 | B22
23 | 1.23 | B23
24 | 0.31 | B24
25 | 0.6 | B25
26 | 0.64 | B26
27 | 0.62 | B27
28 | 0.48 | B28
29 | 0.9 | B29
30 | 0.87 | B30
31 | 0.56 | B31
32 | 1.03 | B32
